Laboratory results: patent US20220089656A1 (published 2022)

Molecular target: T1, human ASIP (agouti-signaling protein, RnD Systems) (human, UniProt P42127 23-132)
T1 construct: Coated at 2 ug/ml; also called ASIP protein
T1 sequence (looked up): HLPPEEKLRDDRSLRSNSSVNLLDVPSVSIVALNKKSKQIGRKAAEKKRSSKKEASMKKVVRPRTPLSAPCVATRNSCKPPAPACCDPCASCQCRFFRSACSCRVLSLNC
Test: ELISA: Protein M-HRP on coated human ASIP without antibody

B1: Protein M horseradish peroxidase (HRP) fusion protein (other)
chain: EQKLISEEDLAANQLTPTFYDNSCPNVSNIVRDTIVNELRSDPRIAASILRLHFHDCFVNGCDASILLDNTTSFRTEKDAFGNANSARGFPVIDRMKAAVESACPRTVSCADLLTIAAQQSVTLAGGPSWRVPLGRRDSLQAFLDLANANLPAPFFTLPQLKDSFRNVGLNRSSDLVALSGGHTFGKNQCRFIMDRLYNFSNTGLPDPTLNTTYLQTLRGLCPLNGNLSALVDFDLRTPTIFDNKYYVNLEEQKGLIQSDQELFSSPNATDTIPLVRSFANSTQTFFNAFVEAMDRMGNITPLTGTQGQIRLNCRVVNSNSGGGGSGGGGSGGGGSTNLVNQSGYALVASGRSGNLGFKLFSTQSPSAEVKLKSLSLNDGSYQSEIDLSGGANFREKFRNFANELSEAITNSPKGLDRPVPKTEISGLIKTGDNFITPSFKAGYYDHVASDGSLLSYYQSTEYFNNRVLMPILQTTNGTLMANNRGYDDVFRQVPSFSGWSNTKATTVSTSNNLTYDKWTYFAAKGSPLYDSYPNHFFEDVKTLAIDAKDISALKTTIDSEKPTYLIIRGLSGNGSQLNELQLPESVKKVSLYGDYTGVNVAKQIFANVVELEFYSTSKANSFGFNPLVLGSKTNVIYDLFASKPFTHIDLTQVTLQNSDNSAIDANKLKQAVGDIYNYRRFERQFQGYFAGGYIDKYLVKNVNTNKDSDDDLVYRSLKELNLHLEEAYREGDNTYYRVNENYYPGASIYENERASRDSEFQNEILKRAEQNGVTFDENIKRITASGKYSVQFQKLENDTDSSLERMTKAVEGLVTVIGEEKFETVDITGVSSDTNEVKSLAKELKTNALGVKLKL
notes: also called Protein M-HRP
B1: no binding.
